# Experimental data published in patent US20160090640A1.
# Target: GII.4 norovirus
# Assay: capture on a column of Con A-linked resin, real-time RT-PCR; the dilution applied held about 3.39 copies/µL; no Ct value in the non-Con A-linked resin
substance,measurement,value
"Concanavalin A (Con A) (Sigma-Aldrich, USA) (from UniProt P02866 30-281)",virus concentrated through the Con A-linked resin column,2.16 copies/µL
